From US20130309252A1 (UNIVERSITE DE LA MEDITERRANEE AIX MARSEILLE II, published 2013)
Where no end group is shown, it is not given here.

Assays:
[1] = target: T1, Grasp55 (Golgi reassembly-stacking protein of 55 kDa), endogenous mouse protein in cell lysates (murine, UniProt Q99JX3 2-451, limits assumed); test: co-immunoprecipitation, anti-GRASP55 blot
T1 construct: Endogenous protein detected by mass spectrometry or anti-GRASP55 blot
Description: (§1) Total cell lysates were used as controls. Proteins were then resolved on SDS-PAGE and blotted with anti-GRASP55 antibody. Arrows indicate the signal corresponding to Grasp55.
Protein concentration of the samples was determined according to the Bradford method.

[2] = target: T2, Grasp55 FL, yeast two-hybrid construct (murine, UniProt Q99JX3 1-451); test: yeast two-hybrid, growth on selective medium
T2 construct: Gal4 fusion expressed in yeast AH109; also called wt Grasp55
From the text: (§2) The different GRASP55 constructs were cloned into pGBT9 GW vector (Ga14 DNA-binding domain fusion vector, Trp) as well in the pACT2 GW vector (Gal4 DNA-activation domain fusion vector, Leu) using the Gateway technology (Invitrogen). Plasmids were then co-transformed in AH109 yeast strain (/MATa, trp1-901, leu2-3, 112, ura3-52, his3-200, gal4/A, /gal80/A, /LYS2::GAL1//UAS//-GAL1//TATA//-HIS3, GAL2//UAS//-GAL2//TATA//-ADE2, URA3::MEL1//UAS//-MEL1//TATA//-lacZ, MEL1/) in accordance with the previously described transformation protocol (Chien et al. 1991. Proc Natl Acad Sci USA. 88:9578-82). Following co-transformation with the two vectors containing the different constructs (as well as the empty vector to test self activation), yeasts were plated onto Synthetic Complete (SC) medium minus Leucine (−L), minus Tryptophan (−W), minus Histidine (−H) and incubated at 30° C. for 4 to 5 days. All yeast media were prepared as previously described.
(§3) GST fusion proteins were produced and yeast two-hybrid assay was performed as previously described in example 1.

[3] = target: Grasp55 PDZI + II (1-160), yeast two-hybrid construct (murine, UniProt Q99JX3 1-160); test: yeast two-hybrid, growth on selective medium
From the text: as §2, §3

[4] = target: T3, Grasp55 PDZII (80-160), yeast two-hybrid construct (murine, UniProt Q99JX3 80-160); test: yeast two-hybrid, growth on selective medium
T3 construct: also called isolated second PDZ domain
From the text: as §2, §3

[5] = target: T4, Grasp55 PDZI (1-79), yeast two-hybrid construct (murine, UniProt Q99JX3 1-79); test: yeast two-hybrid, growth on selective medium
T4 construct: also called isolated first PDZ domain
From the text: as §2, §3

[6] = target: Grasp55 PDZI′ (1-107), yeast two-hybrid construct (murine, UniProt Q99JX3 1-107); test: yeast two-hybrid, growth on selective medium
From the text: as §2, §3

[7] = target: Grasp55 PDZI′ + II′ (1-208), yeast two-hybrid construct (murine, UniProt Q99JX3 1-208); test: yeast two-hybrid, growth on selective medium
From the text: as §2, §3

[8] = target: Grasp55 PDZII′ (108-208), yeast two-hybrid construct (murine, UniProt Q99JX3 108-208); test: yeast two-hybrid, growth on selective medium
From the text: as §2, §3

[9] = target: T1, Grasp55 (Golgi reassembly-stacking …); test: peptide pull-down of KLN205 lysates, mass spectrometry
From the text: As control, the same peptides, but deleted of the last three amino-acids known as the functional PDZ binding motif of JAM family members, were used.

[10] = target: T5, GST-PDZI′ recombinant Grasp55 protein (murine); test: HTRF competition against biotinylated JAM-C peptide
T5 construct: also called Grasp-GST-PDZI′; PDZI′-GST-construct
Description: (§4) In some experiments, competing peptide or chemicals were added to the incubation mix at the indicated concentration. After incubation, microtiter plates (Costar #3693) were red using PolarScan Omega (BMG Labtech) equipped for HTRF measurements. Upon excitation at 320 nm, a 620 nm fluorescence emission is produced by the donor terbium that in turn excites a 665 nm light emission by a Streptavidin-d2 (acceptor) bound to the Biotinylated interacting Peptide if the latter is interacting with the donor. The […] R ratio is obtained and a Delta F is computed as: [(Rₛₐₘₚₗₑ−RNSB)/RNSB]*100 where RNSB is the Non Specific Background signal determined in incubates where the GST-fusion protein was omitted.

GST-GRASP55 PDZ I+II = target: T6, GST-GRASP55 PDZ I+II (murine); test: ELISA, GST fusion on glutathione plate, biotinylated peptide
T6 construct: also called PDZ I+II of Grasp55; PDZI+II (1-160)
Description: (§5) Ninety-six well plates coated with glutathione were incubated overnight with various GST fusion proteins. The plates were then washed, blocked and incubated with JAMs biotinylated peptides with or without PDZ binding motif. […] Results are expressed as Mean+/−SEM of Relative Unit of absorbance measured at 450 nm. […] One representative experiment is shown.
(§6) To set up ELISA test, various proteins of soluble GST-GRASP55 proteins were incubated on ninety-six-well plates (Nalge Nunc International) coated with glutathione. Plates were then washed and blocked with buffer containing PBS and 2% of bovine albumin for 2 hours. […] After three successive washes, streptavidin-HRP was added to reveal the various complexes, followed by a HRP substrate, tetramethylbenzidine (TMB). Absorbance (OD_{450 nm}) was determined on an ELISA POLARstar reader.

[11] = target: T5, GST-PDZI′ recombinant Grasp55 protein; test: HTRF
Description: as §4

[12] = target: T7, GST-PDZI′+II′ recombinant Grasp55 protein (murine); test: HTRF
T7 construct: also called Grasp-GST-PDZI′+II′
Description: as §4

[13] = target: T1, Grasp55 (Golgi reassembly-stacking …); test: peptide pull-down of cell lysates, anti-GRASP55 blot
From the text: as §1

GST-GRASP55 PDZ I = target: T8, GST-GRASP55 PDZ I (murine); test: ELISA, GST fusion on glutathione plate, biotinylated peptide
T8 construct: also called PDZ I of Grasp55; PDZI (1-79)
Description: as §5, §6

T5 sequence (chain, as listed by the source): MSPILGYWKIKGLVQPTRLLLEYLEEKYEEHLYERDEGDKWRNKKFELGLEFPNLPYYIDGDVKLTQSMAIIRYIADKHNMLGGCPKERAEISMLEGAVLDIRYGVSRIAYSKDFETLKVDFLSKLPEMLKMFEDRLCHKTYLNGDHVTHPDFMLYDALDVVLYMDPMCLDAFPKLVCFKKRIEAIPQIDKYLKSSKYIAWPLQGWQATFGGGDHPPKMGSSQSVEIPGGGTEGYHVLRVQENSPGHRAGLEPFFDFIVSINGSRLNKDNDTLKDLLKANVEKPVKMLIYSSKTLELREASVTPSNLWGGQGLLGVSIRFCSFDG
T8 sequence (chain, as listed by the source): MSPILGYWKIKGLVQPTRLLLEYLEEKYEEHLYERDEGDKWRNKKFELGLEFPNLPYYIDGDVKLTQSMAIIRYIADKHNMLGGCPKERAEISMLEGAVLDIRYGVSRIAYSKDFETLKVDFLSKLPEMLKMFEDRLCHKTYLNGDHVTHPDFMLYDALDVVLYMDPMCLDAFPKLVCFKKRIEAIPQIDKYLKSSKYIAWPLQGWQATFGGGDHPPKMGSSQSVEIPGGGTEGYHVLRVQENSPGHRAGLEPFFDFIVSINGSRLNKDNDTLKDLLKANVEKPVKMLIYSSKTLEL
T6 sequence (chain, as listed by the source): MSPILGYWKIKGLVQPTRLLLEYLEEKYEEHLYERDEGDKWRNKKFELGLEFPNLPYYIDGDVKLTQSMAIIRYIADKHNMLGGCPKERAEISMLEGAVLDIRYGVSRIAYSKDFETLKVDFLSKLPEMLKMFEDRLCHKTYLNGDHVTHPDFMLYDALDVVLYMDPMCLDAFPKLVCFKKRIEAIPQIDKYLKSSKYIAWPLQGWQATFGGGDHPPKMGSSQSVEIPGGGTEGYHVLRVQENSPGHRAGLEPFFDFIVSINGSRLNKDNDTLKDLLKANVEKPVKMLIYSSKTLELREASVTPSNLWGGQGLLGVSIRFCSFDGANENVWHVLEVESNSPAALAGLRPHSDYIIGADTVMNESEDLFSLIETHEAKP

Binder	binding result [2]	binding result [3]	binding result [4]	binding result [5]	other results
JAM-C, endogenous mouse protein immunoprecipitated with rat mAb 19H36 (receptor, also called junctional adhesion molecule C) EAVNLKSSNRNPVVHEFESVELSCIITDSQTSDPRIEWKKIQDGQTTYVYFDNKIQGDLAGRTDVFGKTSLRIWNVTRSDSAIYRCEVVALNDRKEVDEITIELIVQVKPVTPVCRIPAAVPVGKTATLQCQESEGYPRPHYSWYRNDVPLPTDSRANPRFQNSSFHVNSETGTLVFNAVHKDDSGQYYCIASNDAGAARCEGQDMEVYDLNIAGIIGGVLVVLIVLAVITMGICCAYRRGCFISSKQDGESYKSPGKHDGVNYIRTSEEGDFRHKSSFVI	–	–	–	–	binding result [1]: binds
TCYAQRKGYFSKETSFQKGSPASKVTTMSENDFKHTKS (other, End at 295 worked out from 'deletion of the last three amino-acids' of 258-298; not shown: Gal4 domain of the two-hybrid vector) [JAM-B ΔPDZbm, yeast two-hybrid construct lacking the last three amino-acids]	no binding	no binding	no binding	no binding	–
ADAM17 C-terminal sequence, yeast two-hybrid construct (other, not shown: Gal4 domain of the two-hybrid vector) CVDKKLDKQYESLSLFHHSNIEMLSSMDSASVRIIKPFPAPQTPGRLQALQPAAMMPPVSAAPKLDHQRMDTIQEDPSTDSHVDDDGFEKDPFPNSSTAAKSFEDLTDHPVTRSEKAASFKLQRQSRVDSKETEC	–	no binding	binds	no binding	binding result [6]: no binding; binding result [7]: no binding; binding result [8]: no binding
TCYAQRKGYFSKETSFQKGSPASKVTTMSENDFKHTKSFII (other, not shown: Gal4 domain of the two-hybrid vector) [JAM-B cytoplasmic C-terminal construct, yeast two-hybrid]	binds	binds	no binding	no binding	–
SKVTTMSENDFKHTKS (also: biotinylated (position not given here), also called JAM-BΔ) [biotinylated JAM-B control peptide, last 19 amino-acids deleted of the last three amino-acids]	–	–	–	–	binding result [9]: no binding
JAM-A, endogenous mouse protein immunoprecipitated with rat mAb H202 (receptor, also called junctional adhesion molecule A) KGSVYTAQSDVQVPENESIKLTCTYSGFSSPRVEWKFVQGSTTALVCYNSQITAPYADRVTFSSSGITFSSVTRKDNGEYTCMVSEEGGQNYGEVSIHLTVLVPPSKPTISVPSSVTIGNRAVLTCSEHDGSPPSEYSWFKDGISMLTADAKKTRAFMNSSFTIDPKSGDLIFDPVTAFDSGEYYCQAQNGYGTAMRSEAAHMDAVELNVGGIVAAVLVTLILLGLLIFGVWFAYSRGYFETTKKGTAPGKKVIYSQPSTRSEGEFKQTSSFLV	–	–	–	–	binding result [1]: binds
JAM-B, endogenous mouse protein immunoprecipitated with rat mAb JB4 (receptor, also called junctional adhesion molecule B) FSASKDHRQEVTVIEFQEAILACKTPKKTTSSRLEWKKVGQGVSLVYYQQALQGDFKDRAEMIDFNIRIKNVTRSDAGEYRCEVSAPTEQGQNLQEDKVMLEVLVAPAVPACEVPTSVMTGSVVELRCQDKEGNPAPEYIWFKDGTSLLGNPKGGTHNNSSYTMNTKSGILQFNMISKMDSGEYYCEARNSVGHRRCPGKRMQVDVLNISGIIATVVVVAFVISVCGLGTCYAQRKGYFSKETSFQKGSPASKVTTMSENDFKHTKSFII	–	–	–	–	binding result [1]: binds
NYIRTSEEGDFRHKSSFVI (also called JAM-C unlabelled peptide) [non-biotinylated (unlabelled) JAM-C peptide]	–	–	–	–	fold increase in EC50 against GST-PDZI′+II′ and GST-GraspFL [10]: 20 fold
NYIRTSEEGDFRHKSS (also: biotinylated (position not given here), also called JAM-CΔ) [biotinylated JAM-C control peptide ΔPDZbm, lacking the last three amino-acids]	–	–	–	–	binding result (GST-GRASP55 PDZ I+II): no binding; binding result [11]: no binding (tested: 1.9*10^-7M peptide); binding result [12]: no binding (tested: 1.9*10^-7M peptide); binding result [13]: no binding
NYIRTSEEGDFRHKSSFVI (also: biotinylated (position not given here), also called JAM-C peptide; biotinylated JAM-C) [biotinylated peptide corresponding to the last 19 amino-acids of JAM-C]	–	–	–	–	binding result (GST-GRASP55 PDZ I): no binding

The next lines start with results.

binding result [2]	binding result [3]	binding result [4]	binding result [5]	Binder	other results
no binding	no binding	no binding	no binding	AYSRGYFETTKKGTAPGKKVIYSQPSTRSEGEFKQTS (other, End at 296 worked out from 'deletion of the last three amino-acids' of 260-299; not shown: Gal4 domain of the two-hybrid vector) [JAM-A ΔPDZbm, yeast two-hybrid construct lacking the last three amino-acids]	–
binds	binds	no binding	no binding	ICCAYRRGCFISSKQDGESYKSPGKHDGVNYIRTSEEGDFRHKSSFVI (other, also called JAM-C C-terminal region; not shown: Gal4 domain of the two-hybrid vector) [JAM-C cytoplasmic C-terminal construct, yeast two-hybrid]	binding result [6]: binds; binding result [7]: binds; binding result [8]: no binding
–	–	–	no binding	ADAM10 C-terminal sequence, yeast two-hybrid construct (other, not shown: Gal4 domain of the two-hybrid vector) FIKICSVHTPSSNPKLPPPKPLPGTLKRRRPPQPIQQPPRQRPREYQMGHMRR	binding result [6]: no binding; binding result [8]: no binding
no binding	no binding	no binding	no binding	ICCAYRRGCFISSKQDGESYKSPGKHDGVNYIRTSEEGDFRHKSS (other, End at 307 worked out from 'deletion of the last three amino-acids' of 263-310; not shown: Gal4 domain of the two-hybrid vector) [JAM-C ΔPDZbm, yeast two-hybrid construct lacking the last three amino-acids]	binding result [6]: no binding; binding result [7]: no binding; binding result [8]: no binding
